Data on 1 protein can be found in article PMC2659760.

Substrate in series [1]: COc1ccc2cc(CN)ccc2c1
In words: Substrate activity with BPAO. In kind it is biochemical, bovine. The note with it: other: UV-vis spectrophotometry, pH 7.2 phosphate buffer, 30 °C.

Substrate in series [2]: NCc1ccccc1
In words: Substrate activity with BPAO. The series is classed as biochemical, bovine. The note with it: other: UV-vis spectrophotometry, pH 7.2 phosphate buffer, 30 °C.

B1: bovine plasma amine oxidase (BPAO) (Bos taurus) (protein)
chain: REEGGVGSEEGVGKQCHPSLPPRCPSRSPSDQPWTHPDQSQLFADLSREELTTVMSFLTQQLGPDLVDAAQARPSDNCVFSVELQLPPKAAALAHLDRGSPPPAREALAIVFFGGQPQPNVTELVVGPLPQPSYMRDVTVERHGGPLPYYRRPVLLREYLDIDQMIFNRELPQAAGVLHHCCSYKQGGQKLLTMNSAPRGVQSGDRSTWFGIYYNITKGGPYLHPVGLELLVDHKALDPADWTVQKVFFQGRYYENLAQLEEQFEAGQVNVVVIPDDGTGGFWSLKSQVPPGPTPPLQFHPQGPRFSVQGNRVASSLWTFSFGLGAFSGPRVFDVRFQGERLAYEISLQEAGAVYGGNTPAAMLTRYMDSGFGMGYFATPLIRGVDCPYLATYMDWHFVVESQTPKTLHDAFCVFEQNKGLPLRRHHSDFLSHYFGGVAQTVLVFRSVSTMLNYDYVWDMVFYPNGAIEVKLHATGYISSAFLFGAARRYGNQVGEHTLGPVHTHSAHYKVDLDVGGLENWVWAEDMAFVPTAIPWSPEHQIQRLQVTRKQLETEEQAAFPLGGASPRYLYLASKQSNKWGHPRGYRIQTVSFAGGPMPQNSPMERAFSWGRYQLAITQRKETEPSSSSVFNQNDPWTPTVDFSDFINNETIAGKDLVAWVTAGFLHIPHAEDIPNTVTVGNGVGFFLRPYNFFDQEPSMDSADSIYFREGQDAGSCEINPLACLPQAATCAPDLPVFSHGGYPEY
A word on the kcat: it is the number of substrate molecules converted per active site and unit of time at saturation. A word on the kcat/Km: it is the turnover number divided by the Michaelis constant. B1: in series [1], the Km was 0.74±0.15 mM mM, the kcat is 1.15 ± 0.06 s⁻¹ and the kcat/Km is 1550 M⁻¹ s⁻¹. Moreover, in series [2], the Km came to 1.77±0.24 mM mM, the catalytic constant (kcat) amounted to 1.23 ± 0.06 s⁻¹ and the kcat/Km is 695 M⁻¹ s⁻¹.
